This assay has as its target T1, GST-VAMP-2 (VAMP-2 generated as a GST fusion protein, bound to glutathione beads) (UniProt P63027 1-94).
T1 construct: not shown: glutathione S-transferase (GST) tag
The assay is described as follows: GST pull down, immunoblot for the HA tag.

T1 sequence (P63027 1-94): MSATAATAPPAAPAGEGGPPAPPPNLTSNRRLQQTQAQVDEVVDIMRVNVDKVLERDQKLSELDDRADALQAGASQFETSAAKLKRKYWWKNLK

B1: TAT-HA-SNAP-23 fusion polypeptide (TAT cell-penetrating polypeptide, hemagglutinin affinity tag, and 78 amino acids from the amino-terminus of human SNAP-23) (other)
chain: MRGSHHHHHHGMASMTGGQQMGRDLYDDDDKDRWGSKLGYGRKKRRQRRRGGSTMSGYPYDVPDYAGSMDNLSSEEIQQRAHQITDESLESTRRILGLAIESQDAGIKTITMLDEQKEQLNRIEEGLDQINKDMRETEKTLTELNK
notes: also called TAT-SNAP-23
On to B1, for which the binding result is on record as “no binding”.

Values taken from patent US20110178020A1 (UNIVERSITY OF LOUISVILLE RESEARCH FOUNDATION, published 2011).
